Laboratory results: doi:10.1101/2024.07.10.602847

Target: AeCRK^G359E-mCherry (Aeschynomene evenia)
Experiment: co-IP

Row | Substance | fold enrichment compared to the negative control MtLYK3-CFP
1 | AeRLCK2-YFP (natural protein) | 2.9 fold
2 | AeCRK^G359E-mCherry (receptor) | 7.37 fold
